Experimental data taken from patent publication US20260146107A1 (ALLIGATOR BIOSCIENCE, published 2026).

What was measured:
[1] = target: human CD40 expressed on cells (CD40 reporter cells, HEK Blue CD40L cells, primary B cells, tumour APCs) (human, UniProt P25942 21-277); assay: cell-based or functional assay
[2] = target: T1, biotinylated human CEACAM5-His (Acro Biosystems #CE5-H82E0) (human, UniProt P06731 35-685, biotinylated (site not stated)); assay: Octet BLI, captured CEACAM5-biotin, bsAb in solution, 1:1 fit
T1 construct: also called CEACAM5-biotin; captured human CEACAM5-biotin; not shown: His tag
T1 sequence (looked up): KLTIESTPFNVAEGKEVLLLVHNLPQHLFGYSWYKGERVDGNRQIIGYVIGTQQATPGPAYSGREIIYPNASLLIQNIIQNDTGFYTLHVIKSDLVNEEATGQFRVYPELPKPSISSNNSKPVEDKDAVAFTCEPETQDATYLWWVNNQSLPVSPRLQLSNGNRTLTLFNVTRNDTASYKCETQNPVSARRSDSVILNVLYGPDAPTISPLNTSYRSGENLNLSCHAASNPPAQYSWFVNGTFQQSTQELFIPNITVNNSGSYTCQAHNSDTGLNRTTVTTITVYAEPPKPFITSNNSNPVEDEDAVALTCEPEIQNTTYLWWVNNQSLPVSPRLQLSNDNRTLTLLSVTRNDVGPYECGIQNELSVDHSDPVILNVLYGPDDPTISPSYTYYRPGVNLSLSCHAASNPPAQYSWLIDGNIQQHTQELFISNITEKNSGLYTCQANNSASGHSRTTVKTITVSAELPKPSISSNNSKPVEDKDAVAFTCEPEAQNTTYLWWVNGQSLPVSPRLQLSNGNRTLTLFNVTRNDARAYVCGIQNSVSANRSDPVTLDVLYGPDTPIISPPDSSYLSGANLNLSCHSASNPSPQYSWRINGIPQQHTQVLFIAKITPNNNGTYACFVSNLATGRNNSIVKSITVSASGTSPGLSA
Procedure: Kinetic measurements were performed in the Octet RED96 platform using several different setups. […] Monomeric human CD40-His-Avi tag (Acro Biosystems #CD0-H5228), monomeric Human CEACAM5-His (R&D Systems #4128-CM-050) or monomeric Cynomolgus CEACAM5-His (Sino Biological #90891-C08H) were ½ serially diluted in 1× kinetic buffer (Sartorius) starting at 500 nM or 100 nM. […] Binding kinetics was studied in 1× kinetic buffer where association was allowed for 100 sec, 300 sec or 600 sec followed by dissociation for 100 sec, 300 sec or 3600 sec. Sensor tips were regenerated with 10 mM Glycine pH 1.7. Data generated were referenced by subtracting blank or parallel buffer blank, the baseline was aligned to the y-axis, inter-step correction by alignment against dissociation was performed and the data was smoothed by Savitzky-Golay filter in the data analysis software (v9.0.0.14). The processed data was fitted using a 1:1 Langmuir binding model with R² or X² as a measurement of fitting accuracy.
Association was measured for 100 sec and dissociation measured for 100 sec.

[3] = target: T2, human CEACAM5 expressed on cells (CHO-CEACAM5 transfectants; MKN45 and LS174T tumour cells) (human, UniProt P06731 35-685); assay: flow cytometry on CHO-CEACAM5 cells, fluorochrome-conjugated anti-human IgG, MFI
T2 construct: whole, on cells; also called CEACAM5 on cells; hCEA
T2 sequence (looked up): T1 sequence (looked up)
Text: (§1) The human CEACAM5 and CEACAM1 genes were cloned into pcDNA3.1, and the vector was subsequently stably transfected into CHO cells. […] Binding of the antibodies was detected using fluorochrome-conjugated anti-human IgG and analyzed using flow cytometry.

[4] = target: T3, human CEACAM1 expressed on CHO cells (human, UniProt P13688 35-526); assay: flow cytometry on CHO-CEACAM1 cells, fluorochrome-conjugated anti-human IgG, MFI
T3 construct: whole, on cells; also called CHO-CEACAM1; CEACAM1 on cells
T3 sequence (looked up): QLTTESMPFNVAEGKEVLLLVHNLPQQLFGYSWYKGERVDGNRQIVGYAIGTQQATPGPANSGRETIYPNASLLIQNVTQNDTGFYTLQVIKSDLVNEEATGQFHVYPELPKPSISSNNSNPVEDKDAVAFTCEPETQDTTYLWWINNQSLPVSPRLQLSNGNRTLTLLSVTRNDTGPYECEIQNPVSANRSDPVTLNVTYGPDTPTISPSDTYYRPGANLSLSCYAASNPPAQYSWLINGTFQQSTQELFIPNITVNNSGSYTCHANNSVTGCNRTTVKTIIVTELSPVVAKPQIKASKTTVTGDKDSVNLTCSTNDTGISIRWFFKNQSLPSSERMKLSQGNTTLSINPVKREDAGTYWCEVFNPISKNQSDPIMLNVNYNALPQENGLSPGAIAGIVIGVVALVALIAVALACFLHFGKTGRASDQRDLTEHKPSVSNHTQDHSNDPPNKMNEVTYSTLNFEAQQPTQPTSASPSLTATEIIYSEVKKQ
Text: as §1

[5] = target: T4, human CEACAM5, recombinant (R&D Systems #4128-CM-050) (human, UniProt P06731 35-685); assay: ELISA, antigen coated at 0.5 µg/mL, bsAb titrated, anti-human kappa-HRP, luminescence
T4 construct: Bought; coated in ELISA and used as monomeric analyte in Octet; also called hCEACAM-5; Human CEACAM5-His; not shown: His tag
T4 sequence (looked up): T1 sequence (looked up)

[6] = target: T5, human CEACAM6, recombinant (R&D Systems #3934-CM-050) (human, UniProt P40199 35-320); assay: as above
T5 construct: also called hCEACAM-6
T5 sequence (looked up): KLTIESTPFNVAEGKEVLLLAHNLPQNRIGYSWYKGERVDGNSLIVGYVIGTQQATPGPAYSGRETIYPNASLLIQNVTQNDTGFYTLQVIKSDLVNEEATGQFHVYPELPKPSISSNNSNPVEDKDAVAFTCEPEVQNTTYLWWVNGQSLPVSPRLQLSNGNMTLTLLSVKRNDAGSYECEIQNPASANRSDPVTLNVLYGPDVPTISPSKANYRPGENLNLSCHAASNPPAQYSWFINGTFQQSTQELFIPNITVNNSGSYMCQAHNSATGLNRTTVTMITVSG

[7] = target: T6, CEACAM-8, recombinant (R&D Systems #9639-CM-050) (UniProt P31997 35-320); assay: as above
T6 sequence (looked up): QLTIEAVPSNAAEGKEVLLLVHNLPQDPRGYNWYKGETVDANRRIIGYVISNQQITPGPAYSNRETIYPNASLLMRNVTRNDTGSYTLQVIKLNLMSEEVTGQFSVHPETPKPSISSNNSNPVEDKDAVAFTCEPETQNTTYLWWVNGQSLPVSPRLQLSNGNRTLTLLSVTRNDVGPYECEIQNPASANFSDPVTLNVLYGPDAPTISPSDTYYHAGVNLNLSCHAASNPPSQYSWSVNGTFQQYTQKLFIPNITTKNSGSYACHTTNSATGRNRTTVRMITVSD

[8] = target: T4, human CEACAM5, recombinant (R&D Systems …); assay: dual-target ELISA: hCEACAM-5 coated, bsAb titrated, detected with biotinylated hCD40-muIg and streptavidin-HRP, luminescence; signal needs both targets bound

human CD40 expressed on cells (CD40 reporter cells, HEK Blue CD40L cells, primary B cells, tumour APCs), sequence (P25942 21-277): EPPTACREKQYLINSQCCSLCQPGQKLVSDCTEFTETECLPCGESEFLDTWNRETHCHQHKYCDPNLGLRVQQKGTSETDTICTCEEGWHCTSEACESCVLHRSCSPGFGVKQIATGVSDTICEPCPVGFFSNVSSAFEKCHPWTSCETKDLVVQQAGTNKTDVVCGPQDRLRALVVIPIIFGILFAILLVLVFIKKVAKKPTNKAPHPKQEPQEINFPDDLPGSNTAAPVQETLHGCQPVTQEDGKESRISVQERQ

- EC50 of SEAP release, HEK Blue CD40L reporter cells, bsAb crosslinked to CHO-CEACAM5 cells, 0 Raji sink cells/well [1]: 0.03 nM
- EC50 of SEAP release, same assay, 10 000 Raji sink cells/well [1]: 0.06 nM
- EC50 of SEAP release, same assay, 30 000 Raji sink cells/well [1]: 0.13 nM
- EC50 of SEAP release, same assay, 90 000 Raji sink cells/well [1]: 0.36 nM
- Kd [2]: < 0.001 nM
- koff [2]: < 1e-07 s⁻¹
- kon [2]: 47000 M⁻¹ s⁻¹
- EC50 (read off the curve) [3]: ~3 nM
- binding result [4]: no binding (tested: about 400 nM)
- EC50 (read off the curve) [5]: ~0.5 nM
- binding result [6]: no binding (tested: 100 nM)
- binding result [7]: no binding (tested: 100 nM)
- EC50 (read off the curve) [8]: ~0.6 nM
B1: Multi41 (bispecific antibody)
heavy 1: not shown
light: DIQMTQSPSSLSASVGDRVTITCRASQSISSYLNWYQEKPGKAPKLLIYAASSLQSGVPSRFSGSGSGTDFTLTISSLQPEDFATYYCQQWRSHLFTFGQGTKLEIKRTVAAPSVFIFPPSDEQLKSGTASVVCYLNNFYPREAKVQWKVDNALQSGNSQESVTEQDSKDSTYSLWSTLTLSKADYEKHKVYACEVTHQGLSSPVTKSFNRGEC
heavy 2: EVQLLESGGGLVQPGGSLRLSCAASGFTFSTYGMHWVREAPGKGLEWLSYISGGSSYIFYADSVKGRFTISRDNSKNTLYLQMNSLRAEDTAVYYCARILRGGSGMDLWGQGTLVTVSSASTKGPSVFPLAPSSKSTSGGTAALGCLVKDYFPEPVTVSWNSGALTSGVHTFPAVLQSSGLYSLTSVVEVPSSSLGTQTYICNVNHKPSNTKVDKKVEPKSC
notes: Optimised RUBY format, CEACAM5xCD40; copies: 2 + 2 + 2
